The chains are these.
B1: LOXL2 (parent)
chain: HISSCKLGPQVSLDPMKNVTCENG
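Further: lentivirally expressed fusions sorted by FACS into six bins by GFP to DsRed ratio, PSI derived from sequencing read proportions per bin multiplied by bin number.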

Variants of B1 are the subject of this data set. In words: protein stability index of a GFP-peptide fusion (GPS, HEK-293T) (PSI 1-6); higher = more stable. The conditions noted are these: c terminus: a fixed tail appended.
Take HISSCKLGPQVSLDPMNNVTCENG [K17N]: the protein stability index came to 4.3.

As to HISSCKLGPQVSLDPMQNVTCENG [K17Q], the protein stability index was 3.81. For HISSCKLGPQVSLDPMDNVTCENG [K17D], the protein stability index came out at 4.66. With HISSCKLGPQVSLDPMPNVTCENG [K17P] the figure was 4.01; with HISSCKLGPQVSLDPMCNVTCENG [K17C], 3.63. As to HISSCKLGPQVSLDPMANVTCENG [K17A], the protein stability index came to 3.98. For HISSCKLGPQVSLDPMFNVTCENG [K17F] the value was 2.97; for HISSCKLGPQVSLDPMLNVTCENG [K17L], 3.77; for HISSCKLGPHVSLDPMKNVTCENG [Q10H], 3.52. For HISSCKLGPAVSLDPMKNVTCENG [Q10A] the value was 4.29; for HISSCKLGPRVSLDPMKNVTCENG [Q10R], 3.85; for HISSCKLGPEVSLDPMKNVTCENG [Q10E], 4.42. For HISSCKLGPDVSLDPMKNVTCENG [Q10D] the value was 4.58; for HISSCKLGPPVSLDPMKNVTCENG [Q10P], 3.68; for HISSCKLGPTVSLDPMKNVTCENG [Q10T], 3.36. In the case of HISSCKLGPIVSLDPMKNVTCENG [Q10I], the protein stability index came out at 3.54. With HISSCKLGPWVSLDPMKNVTCENG [Q10W] the figure was 2.08. Regarding HISSCKLGPSVSLDPMKNVTCENG [Q10S], the protein stability index was found to be 4.33. As for HISSCKLGPMVSLDPMKNVTCENG [Q10M], the protein stability index amounted to 3.37. With HISSCKLGPGVSLDPMKNVTCENG [Q10G] the figure was 4.53.

Consider HISSCKLGPYVSLDPMKNVTCENG [Q10Y], for which the protein stability index worked out at 3.07. For HISSCKLGPVVSLDPMKNVTCENG [Q10V] the value was 3.56. For HISSCKLGPCVSLDPMKNVTCENG [Q10C], the protein stability index was determined as 3.19.

Turning to HISSCKLGPNVSLDPMKNVTCENG [Q10N], the protein stability index came out at 3.92. For the variant HISSCKLGPLVSLDPMKNVTCENG [Q10L], the protein stability index is 3.32. With HISSCKLGPKVSLDPMKNVTCENG [Q10K] the figure was 3.77. For HISSCKLGPFVSLDPMKNVTCENG [Q10F] the value was 3.07; for HISSCKLGPQVSLDPMKVVTCENG [N18V], 3.78. For the variant HISSCKLGPQVSLDPMKEVTCENG [N18E], the protein stability index was found to be 3.82. Turning to HISSCKLGPQVSLDPMKTVTCENG [N18T], the protein stability index was 3.89. With HISSCKLGPQVSLDPMKAVTCENG [N18A] the figure was 3.76; with HISSCKLGPQVSLDPMKPVTCENG [N18P], 3.92; with HISSCKLGPQVSLDPMKYVTCENG [N18Y], 3.08.

For HISSCKLGPQVSLDPMKWVTCENG [N18W], the protein stability index came out at 2.88. HISSCKLGPQVSLDPMKQVTCENG [N18Q]: the protein stability index turned out to be 4.2. HISSCKLGPQVSLDPMKIVTCENG [N18I]: the protein stability index is 3.4.

Turning to HISSCKLGPQVSLDPMKSVTCENG [N18S], the protein stability index turned out to be 3.2. On to HISSCKLGPQVSLDPMKKVTCENG [N18K], for which the protein stability index turned out to be 4.19.

Take HISSCKLGPQVSLDPMKRVTCENG [N18R]: the protein stability index was 3.44. With HISSCKLGPQVSLDPMKLVTCENG [N18L] the figure was 3.12; with HISSCKLGPQVSLDPMKMVTCENG [N18M], 3.42; with HISSCKLGPQVSLDPMKDVTCENG [N18D], 4.34. For HISSCKLGPQVSLDPMKCVTCENG [N18C] the value was 3.11; for HISSCKLGPQVSLDPMKFVTCENG [N18F], 2.82; for HISSCKLGPQVSLDPMKGVTCENG [N18G], 3.81. For HISSCKLGPQVSLDPMKHVTCENG [N18H] the value was 3.81; for HISSCKLGPQDSLDPMKNVTCENG [V11D], 4.35; for HISSCKLGPQLSLDPMKNVTCENG [V11L], 3.72. On to HISSCKLGPQFSLDPMKNVTCENG [V11F], for which the protein stability index is 3.56. HISSCKLGPQSSLDPMKNVTCENG [V11S]: the protein stability index was determined as 4.09. In the case of HISSCKLGPQQSLDPMKNVTCENG [V11Q], the protein stability index is 4.4.

In the case of HISSCKLGPQASLDPMKNVTCENG [V11A], the protein stability index was 4.03.

As to HISSCKLGPQWSLDPMKNVTCENG [V11W], the protein stability index was 3.44.

Consider HISSCKLGPQMSLDPMKNVTCENG [V11M], for which the protein stability index came out at 4.15. For HISSCKLGPQHSLDPMKNVTCENG [V11H] the value was 4.41; for HISSCKLGPQYSLDPMKNVTCENG [V11Y], 3.67. With HISSCKLGPQKSLDPMKNVTCENG [V11K] the figure was 3.48; with HISSCKLGPQNSLDPMKNVTCENG [V11N], 4.33; with HISSCKLGPQRSLDPMKNVTCENG [V11R], 3.94.

Consider HISSCKLGPQGSLDPMKNVTCENG [V11G], for which the protein stability index worked out at 3.25. In the case of HISSCKLGPQISLDPMKNVTCENG [V11I], the protein stability index is 3.72. With HISSCKLGPQESLDPMKNVTCENG [V11E] the figure was 4.58; with HISSCKLGPQTSLDPMKNVTCENG [V11T], 4.07; with HISSCKLGPQPSLDPMKNVTCENG [V11P], 4.34. As for HISSCKLGPQCSLDPMKNVTCENG [V11C], the protein stability index was found to be 4.27. On to HISSCKLGPQVSLDPMKNHTCENG [V19H], for which the protein stability index amounted to 3.89. For HISSCKLGPQVSLDPMKNATCENG [V19A] the value was 4.32; for HISSCKLGPQVSLDPMKNLTCENG [V19L], 3.77. Turning to HISSCKLGPQVSLDPMKNCTCENG [V19C], the protein stability index was found to be 3.86. With HISSCKLGPQVSLDPMKNKTCENG [V19K] the figure was 4.13; with HISSCKLGPQVSLDPMKNETCENG [V19E], 4.44; with HISSCKLGPQVSLDPMKNFTCENG [V19F], 2.95. For HISSCKLGPQVSLDPMKNITCENG [V19I], the protein stability index worked out at 3.59. With HISSCKLGPQVSLDPMKNGTCENG [V19G] the figure was 4.15. Turning to HISSCKLGPQVSLDPMKNDTCENG [V19D], the protein stability index stood at 4.67.

HISSCKLGPQVSLLPMKNVTCENG [D14L]: the protein stability index was found to be 3.22. For HISSCKLGPQVSLRPMKNVTCENG [D14R] the value was 3.33. With HISSCKLGPQVSLSPMKNVTCENG [D14S] the figure was 3.65; with HISSCKLGPQVSLNPMKNVTCENG [D14N], 3.33; with HISSCKLGPQVSLPPMKNVTCENG [D14P], 3.78. For HISSCKLGPQVSLVPMKNVTCENG [D14V] the value was 3.69; for HISSCKLGPQVSLTPMKNVTCENG [D14T], 3.62. HISSCKLGPQVSLCPMKNVTCENG [D14C]: the protein stability index stood at 2.95. For HISSCKLGPQVSLAPMKNVTCENG [D14A] the value was 3.51; for HISSCKLGPQVSLWPMKNVTCENG [D14W], 2.14; for HISSCKLGPQVSLMPMKNVTCENG [D14M], 3.22. Consider HISSCKLGPQVSLHPMKNVTCENG [D14H], for which the protein stability index came to 3.61.

With HISSCKLGPQVSLEPMKNVTCENG [D14E], the protein stability index was determined as 4.12. Turning to HISSCKLGPQVSLYPMKNVTCENG [D14Y], the protein stability index came out at 2.8. HISSCKLGPQVSLFPMKNVTCENG [D14F]: the protein stability index turned out to be 2.46. As for HISSCKLGPQVSLKPMKNVTCENG [D14K], the protein stability index was 3.5.

Regarding HISSCKLGPQVSLIPMKNVTCENG [D14I], the protein stability index amounted to 3.44. For HISSCKLGPQVSLQPMKNVTCENG [D14Q] the value was 3.58; for HISSCKLGPQVSLGPMKNVTCENG [D14G], 3.45.

The values above are taken from the supplement of paper PMC10567573.
